These results are taken from IntAct's records for PubMed 18093920.

Sequences and labels used below:
B1: Syndecan-1 (Homo sapiens), P18827 (parent)
chain: MRRAALWLWLCALALSLQPALPQIVATNLPPEDQDGSGDDSDNFSGSGAGALQDITLSQQTPSTWKDTQLLTAIPTSPEPTGLEATAASTSTLPAGEGPKEGEAVVLPEVEPGLTAREQEATPRPRETTQLPTTHLASTTTATTAQEPATSHPHRDMQPGHHETSTPAGPSQADLHTPHTEDGGPSATERAAEDGASSQLPAAEGSGEQDFTFETSGENTAVVAVEPDRRNQSPVDQGATGASQGLLDRKEVLGGVIAGGLVGLIFAVCLVGFMLYRMKKKDEGSYSLEEPKQANGGAYQKPTKQEEFYA
B2: Syndecan-2 (Homo sapiens), P34741 (parent)
chain: MRRAWILLTLGLVACVSAESRAELTSDKDMYLDNSSIEEASGVYPIDDDDYASASGSGADEDVESPELTTSRPLPKILLTSAAPKVETTTLNIQNKIPAQTKSPEETDKEKVHLSDSERKMDPAEEDTNVYTEKHSDSLFKRTEVLAAVIAGGVIGFLFAIFLILLLVYRMRKKDEGSYDLGERKPSSAAYQKAPTKEFYA
partner: B1 chain
B3: Syndecan-2 (Homo sapiens), P34741 (parent)
chain: B2 chain
partner: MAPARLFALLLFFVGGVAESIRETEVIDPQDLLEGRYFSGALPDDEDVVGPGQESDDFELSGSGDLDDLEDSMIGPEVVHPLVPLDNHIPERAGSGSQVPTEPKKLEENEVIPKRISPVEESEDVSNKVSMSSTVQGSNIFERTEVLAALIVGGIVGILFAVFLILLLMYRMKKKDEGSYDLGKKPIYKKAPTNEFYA
B4: Syndecan-3 (Homo sapiens), O75056 (parent)
chain: MKPGPPHRAGAAHGAGAGAGAAAGPGARGLLLPPLLLLLLAGRAAGAQRWRSENFERPVDLEGSGDDDSFPDDELDDLYSGSGSGYFEQESGIETAMRFSPDVALAVSTTPAVLPTTNIQPVGTPFEELPSERPTLEPATSPLVVTEVPEEPSQRATTVSTTMATTAATSTGDPTVATVPATVATATPSTPAAPPFTATTAVIRTTGVRRLLPLPLTTVATARATTPEAPSPPTTAAVLDTEAPTPRLVSTATSRPRALPRPATTQEPDIPERSTLPLGTTAPGPTEVAQTPTPETFLTTIRDEPEVPVSGGPSGDFELPEEETTQPDTANEVVAVGGAAAKASSPPGTLPKGARPGPGLLDNAIDSGSSAAQLPQKSILERKEVLVAVIVGGVVGALFAAFLVTLLIYRMKKKDEGSYTLEEPKQASVTYQKPDKQEEFYA
B5: Syndecan-2 (Homo sapiens), P34741 (parent)
chain: B2 chain
B6: Syndecan-4 (Homo sapiens), P31431 (parent)
chain: B3 partner
B7: Syndecan-3 (Homo sapiens), O75056 (parent)
chain: B4 chain
partner: B3 partner

In the first experiment the parent is B1. Particulars: with sdc2_human SDC2, P34741.
Consider MRRAALWLWLCALALSLQPALPQIVATNLPPEDQDGSGDDSDNFSGSGAGALQDITLSQQTPSTWKDTQLLTAIPTSPEPTGLEATAASTSTLPAGEGPKEGEAVVLPEVEPGLTAREQEATPRPRETTQLPTTHLASTTTATTAQEPATSHPHRDMQPGHHETSTPAGPSQADLHTPHTEDGGPSATERAAEDGASSQLPAAEGSGEQDFTFETSGENTAVVAVEPDRRNQSPVDQGATGASQGLLDRKEVLGGVIAGGLVLLIFAVCLVGFMLYRMKKKDEGSYSLEEPKQANGGAYQKPTKQEEFYA [G263L], for which the “effect of a mutation on the interaction” value is “decreasing interaction”.
For the variant MRRAALWLWLCALALSLQPALPQIVATNLPPEDQDGSGDDSDNFSGSGAGALQDITLSQQTPSTWKDTQLLTAIPTSPEPTGLEATAASTSTLPAGEGPKEGEAVVLPEVEPGLTAREQEATPRPRETTQLPTTHLASTTTATTAQEPATSHPHRDMQPGHHETSTPAGPSQADLHTPHTEDGGPSATERAAEDGASSQLPAAEGSGEQDFTFETSGENTAVVAVEPDRRNQSPVDQGATGASQGLLDRKEVLGGVIALGLVGLIFAVCLVGFMLYRMKKKDEGSYSLEEPKQANGGAYQKPTKQEEFYA [G259L], the “effect of a mutation on the interaction” value is “decreasing interaction”.

The variants in a further experiment derive from B1. The conditions noted are these: with sdc3_human SDC3, O75056.
Regarding MRRAALWLWLCALALSLQPALPQIVATNLPPEDQDGSGDDSDNFSGSGAGALQDITLSQQTPSTWKDTQLLTAIPTSPEPTGLEATAASTSTLPAGEGPKEGEAVVLPEVEPGLTAREQEATPRPRETTQLPTTHLASTTTATTAQEPATSHPHRDMQPGHHETSTPAGPSQADLHTPHTEDGGPSATERAAEDGASSQLPAAEGSGEQDFTFETSGENTAVVAVEPDRRNQSPVDQGATGASQGLLDRKEVLGGVIAGGLVLLIFAVCLVGFMLYRMKKKDEGSYSLEEPKQANGGAYQKPTKQEEFYA [G263L], the “effect of a mutation on the interaction” value was “decreasing interaction”.
MRRAALWLWLCALALSLQPALPQIVATNLPPEDQDGSGDDSDNFSGSGAGALQDITLSQQTPSTWKDTQLLTAIPTSPEPTGLEATAASTSTLPAGEGPKEGEAVVLPEVEPGLTAREQEATPRPRETTQLPTTHLASTTTATTAQEPATSHPHRDMQPGHHETSTPAGPSQADLHTPHTEDGGPSATERAAEDGASSQLPAAEGSGEQDFTFETSGENTAVVAVEPDRRNQSPVDQGATGASQGLLDRKEVLGGVIALGLVGLIFAVCLVGFMLYRMKKKDEGSYSLEEPKQANGGAYQKPTKQEEFYA [G259L]: the “effect of a mutation on the interaction” value is “decreasing interaction”.

The variants in the next experiment derive from B2. The conditions noted are these: with sdc1_human SDC1, P18827.
MRRAWILLTLGLVACVSAESRAELTSDKDMYLDNSSIEEASGVYPIDDDDYASASGSGADEDVESPELTTSRPLPKILLTSAAPKVETTTLNIQNKIPAQTKSPEETDKEKVHLSDSERKMDPAEEDTNVYTEKHSDSLFKRTEVLAAVIALGVIGFLFAIFLILLLVYRMRKKDEGSYDLGERKPSSAAYQKAPTKEFYA [G152L]: the “effect of a mutation on the interaction” value is recorded as “decreasing interaction”.
Same read-out and setting: the result for MRRAWILLTLGLVACVSAESRAELTSDKDMYLDNSSIEEASGVYPIDDDDYASASGSGADEDVESPELTTSRPLPKILLTSAAPKVETTTLNIQNKIPAQTKSPEETDKEKVHLSDSERKMDPAEEDTNVYTEKHSDSLFKRTEVLAAVIAGGVILFLFAIFLILLLVYRMRKKDEGSYDLGERKPSSAAYQKAPTKEFYA [G156L] reads “decreasing interaction”.

In another experiment the parent is B3. The conditions noted are these: with sdc4_human SDC4, P31431.
For MRRAWILLTLGLVACVSAESRAELTSDKDMYLDNSSIEEASGVYPIDDDDYASASGSGADEDVESPELTTSRPLPKILLTSAAPKVETTTLNIQNKIPAQTKSPEETDKEKVHLSDSERKMDPAEEDTNVYTEKHSDSLFKRTEVLAAVIAGGVILFLFAIFLILLLVYRMRKKDEGSYDLGERKPSSAAYQKAPTKEFYA [G156L], the “effect of a mutation on the interaction” value is “decreasing interaction”.
On the same count and under the same terms, the result for MRRAWILLTLGLVACVSAESRAELTSDKDMYLDNSSIEEASGVYPIDDDDYASASGSGADEDVESPELTTSRPLPKILLTSAAPKVETTTLNIQNKIPAQTKSPEETDKEKVHLSDSERKMDPAEEDTNVYTEKHSDSLFKRTEVLAAVIALGVIGFLFAIFLILLLVYRMRKKDEGSYDLGERKPSSAAYQKAPTKEFYA [G152L] reads “decreasing interaction”.

In another experiment the parent is B4. The conditions noted are these: with sdc2_human SDC2, P34741.
As for MKPGPPHRAGAAHGAGAGAGAAAGPGARGLLLPPLLLLLLAGRAAGAQRWRSENFERPVDLEGSGDDDSFPDDELDDLYSGSGSGYFEQESGIETAMRFSPDVALAVSTTPAVLPTTNIQPVGTPFEELPSERPTLEPATSPLVVTEVPEEPSQRATTVSTTMATTAATSTGDPTVATVPATVATATPSTPAAPPFTATTAVIRTTGVRRLLPLPLTTVATARATTPEAPSPPTTAAVLDTEAPTPRLVSTATSRPRALPRPATTQEPDIPERSTLPLGTTAPGPTEVAQTPTPETFLTTIRDEPEVPVSGGPSGDFELPEEETTQPDTANEVVAVGGAAAKASSPPGTLPKGARPGPGLLDNAIDSGSSAAQLPQKSILERKEVLVAVIVGGVVLALFAAFLVTLLIYRMKKKDEGSYTLEEPKQASVTYQKPDKQEEFYA [G396L], the “effect of a mutation on the interaction” value is “decreasing interaction”.
In the case of MKPGPPHRAGAAHGAGAGAGAAAGPGARGLLLPPLLLLLLAGRAAGAQRWRSENFERPVDLEGSGDDDSFPDDELDDLYSGSGSGYFEQESGIETAMRFSPDVALAVSTTPAVLPTTNIQPVGTPFEELPSERPTLEPATSPLVVTEVPEEPSQRATTVSTTMATTAATSTGDPTVATVPATVATATPSTPAAPPFTATTAVIRTTGVRRLLPLPLTTVATARATTPEAPSPPTTAAVLDTEAPTPRLVSTATSRPRALPRPATTQEPDIPERSTLPLGTTAPGPTEVAQTPTPETFLTTIRDEPEVPVSGGPSGDFELPEEETTQPDTANEVVAVGGAAAKASSPPGTLPKGARPGPGLLDNAIDSGSSAAQLPQKSILERKEVLVAVIVLGVVGALFAAFLVTLLIYRMKKKDEGSYTLEEPKQASVTYQKPDKQEEFYA [G392L], the “effect of a mutation on the interaction” value was “decreasing interaction”.

Another experiment covers variants of B5. The conditions noted are these: with sdc3_human SDC3, O75056.
For MRRAWILLTLGLVACVSAESRAELTSDKDMYLDNSSIEEASGVYPIDDDDYASASGSGADEDVESPELTTSRPLPKILLTSAAPKVETTTLNIQNKIPAQTKSPEETDKEKVHLSDSERKMDPAEEDTNVYTEKHSDSLFKRTEVLAAVIAGGVILFLFAIFLILLLVYRMRKKDEGSYDLGERKPSSAAYQKAPTKEFYA [G156L], the “effect of a mutation on the interaction” value was “decreasing interaction”.
On to MRRAWILLTLGLVACVSAESRAELTSDKDMYLDNSSIEEASGVYPIDDDDYASASGSGADEDVESPELTTSRPLPKILLTSAAPKVETTTLNIQNKIPAQTKSPEETDKEKVHLSDSERKMDPAEEDTNVYTEKHSDSLFKRTEVLAAVIALGVIGFLFAIFLILLLVYRMRKKDEGSYDLGERKPSSAAYQKAPTKEFYA [G152L], for which the “effect of a mutation on the interaction” value was “decreasing interaction”.

In the next experiment the parent is B6. The conditions noted are these: with sdc2_human SDC2, P34741.
MAPARLFALLLFFVGGVAESIRETEVIDPQDLLEGRYFSGALPDDEDVVGPGQESDDFELSGSGDLDDLEDSMIGPEVVHPLVPLDNHIPERAGSGSQVPTEPKKLEENEVIPKRISPVEESEDVSNKVSMSSTVQGSNIFERTEVLAALIVGGIVLILFAVFLILLLMYRMKKKDEGSYDLGKKPIYKKAPTNEFYA [G157L]: the “effect of a mutation on the interaction” value was “decreasing interaction”.
For MAPARLFALLLFFVGGVAESIRETEVIDPQDLLEGRYFSGALPDDEDVVGPGQESDDFELSGSGDLDDLEDSMIGPEVVHPLVPLDNHIPERAGSGSQVPTEPKKLEENEVIPKRISPVEESEDVSNKVSMSSTVQGSNIFERTEVLAALIVLGIVGILFAVFLILLLMYRMKKKDEGSYDLGKKPIYKKAPTNEFYA [G153L], the “effect of a mutation on the interaction” value is “decreasing interaction”.

In the next experiment the parent is B6. The conditions noted are these: with sdc3_human SDC3, O75056.
On to MAPARLFALLLFFVGGVAESIRETEVIDPQDLLEGRYFSGALPDDEDVVGPGQESDDFELSGSGDLDDLEDSMIGPEVVHPLVPLDNHIPERAGSGSQVPTEPKKLEENEVIPKRISPVEESEDVSNKVSMSSTVQGSNIFERTEVLAALIVGGIVLILFAVFLILLLMYRMKKKDEGSYDLGKKPIYKKAPTNEFYA [G157L], for which the “effect of a mutation on the interaction” value is given as “decreasing interaction”.
Take MAPARLFALLLFFVGGVAESIRETEVIDPQDLLEGRYFSGALPDDEDVVGPGQESDDFELSGSGDLDDLEDSMIGPEVVHPLVPLDNHIPERAGSGSQVPTEPKKLEENEVIPKRISPVEESEDVSNKVSMSSTVQGSNIFERTEVLAALIVLGIVGILFAVFLILLLMYRMKKKDEGSYDLGKKPIYKKAPTNEFYA [G153L]: the “effect of a mutation on the interaction” value is given as “decreasing interaction”.

Variants of B7 are the subject of a further experiment. The conditions noted are these: with sdc4_human SDC4, P31431.
As for MKPGPPHRAGAAHGAGAGAGAAAGPGARGLLLPPLLLLLLAGRAAGAQRWRSENFERPVDLEGSGDDDSFPDDELDDLYSGSGSGYFEQESGIETAMRFSPDVALAVSTTPAVLPTTNIQPVGTPFEELPSERPTLEPATSPLVVTEVPEEPSQRATTVSTTMATTAATSTGDPTVATVPATVATATPSTPAAPPFTATTAVIRTTGVRRLLPLPLTTVATARATTPEAPSPPTTAAVLDTEAPTPRLVSTATSRPRALPRPATTQEPDIPERSTLPLGTTAPGPTEVAQTPTPETFLTTIRDEPEVPVSGGPSGDFELPEEETTQPDTANEVVAVGGAAAKASSPPGTLPKGARPGPGLLDNAIDSGSSAAQLPQKSILERKEVLVAVIVGGVVLALFAAFLVTLLIYRMKKKDEGSYTLEEPKQASVTYQKPDKQEEFYA [G396L], the “effect of a mutation on the interaction” value is “decreasing interaction”.
